Data reported in the supplement of paper PMC10567573.

B1: PBXIP1 (parent)
chain: LPVETLGPASRMDPESERALQAPH

Variants of: B1
Experiment: protein stability index of a GFP-peptide fusion (GPS, HEK-293T) (PSI 1-6); higher = more stable
Details: c terminus: a fixed tail appended
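Further: lentivirally expressed fusions sorted by FACS into six bins by GFP to DsRed ratio, PSI derived from sequencing read proportions per bin multiplied by bin number.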

Point of comparison: APVETLGPASRMDPESERALQAPH [L1A], protein stability index 5.48. Against it:
- LPVELLGPASRMDPESERALQAPH [T5L] — lower, 3.9
- LPVENLGPASRMDPESERALQAPH [T5N] — lower, 5.12
- LPVEGLGPASRMDPESERALQAPH [T5G] — lower, 5.33
- LPVECLGPASRMDPESERALQAPH [T5C] — lower, 4.89
- LPVEVLGPASRMDPESERALQAPH [T5V] — lower, 4.6
- LPVEKLGPASRMDPESERALQAPH [T5K] — lower, 4.38
- LPVEELGPASRMDPESERALQAPH [T5E] — higher, 5.77
- LPVEHLGPASRMDPESERALQAPH [T5H] — lower, 4.72
- LPVEWLGPASRMDPESERALQAPH [T5W] — lower, 4.65
- LPVEFLGPASRMDPESERALQAPH [T5F] — lower, 4.89
- LPVEQLGPASRMDPESERALQAPH [T5Q] — higher, 5.52
- LPVERLGPASRMDPESERALQAPH [T5R] — lower, 4.14
- LPVESLGPASRMDPESERALQAPH [T5S] — lower, 4.68
- LPVEALGPASRMDPESERALQAPH [T5A] — lower, 5.26
- LPVEPLGPASRMDPESERALQAPH [T5P] — lower, 4.95
- LPVEMLGPASRMDPESERALQAPH [T5M] — lower, 4.41
- LPVEILGPASRMDPESERALQAPH [T5I] — lower, 4.52
- LPVEDLGPASRMDPESERALQAPH [T5D] — higher, 5.49
- KPVETLGPASRMDPESERALQAPH [L1K] — lower, 5.15
- PPVETLGPASRMDPESERALQAPH [L1P] — lower, 5.09
- DPVETLGPASRMDPESERALQAPH [L1D] — lower, 5.07
- TPVETLGPASRMDPESERALQAPH [L1T] — lower, 4.64
- EPVETLGPASRMDPESERALQAPH [L1E] — lower, 4.68
- MPVETLGPASRMDPESERALQAPH [L1M] — lower, 4.43
- HPVETLGPASRMDPESERALQAPH [L1H] — lower, 4.89
- RPVETLGPASRMDPESERALQAPH [L1R] — lower, 4.72
- IPVETLGPASRMDPESERALQAPH [L1I] — lower, 4.42
- GPVETLGPASRMDPESERALQAPH [L1G] — lower, 5.38
- CPVETLGPASRMDPESERALQAPH [L1C] — lower, 3.66
- SPVETLGPASRMDPESERALQAPH [L1S] — lower, 5.25
- YPVETLGPASRMDPESERALQAPH [L1Y] — lower, 5.17
- NPVETLGPASRMDPESERALQAPH [L1N] — lower, 5.38
- VPVETLGPASRMDPESERALQAPH [L1V] — lower, 4.65
- FPVETLGPASRMDPESERALQAPH [L1F] — lower, 4.61
- WPVETLGPASRMDPESERALQAPH [L1W] — lower, 5.13
- QPVETLGPASRMDPESERALQAPH [L1Q] — lower, 5.33
- LPYETLGPASRMDPESERALQAPH [V3Y] — lower, 5.04
- LPAETLGPASRMDPESERALQAPH [V3A] — lower, 4.73
- LPTETLGPASRMDPESERALQAPH [V3T] — higher, 5.56
- LPMETLGPASRMDPESERALQAPH [V3M] — lower, 4.74
- LPEETLGPASRMDPESERALQAPH [V3E] — lower, 5.36
- LPDETLGPASRMDPESERALQAPH [V3D] — higher, 5.5
- LPGETLGPASRMDPESERALQAPH [V3G] — lower, 4.78
- LPQETLGPASRMDPESERALQAPH [V3Q] — lower, 5.07
- LPHETLGPASRMDPESERALQAPH [V3H] — lower, 5.34
- LPRETLGPASRMDPESERALQAPH [V3R] — lower, 4.27
- LPSETLGPASRMDPESERALQAPH [V3S] — lower, 4.83
- LPIETLGPASRMDPESERALQAPH [V3I] — lower, 4.92
- LPWETLGPASRMDPESERALQAPH [V3W] — lower, 4.55
- LPFETLGPASRMDPESERALQAPH [V3F] — lower, 4.88
- LPNETLGPASRMDPESERALQAPH [V3N] — lower, 5.42
- LPPETLGPASRMDPESERALQAPH [V3P] — lower, 5.25
- LPKETLGPASRMDPESERALQAPH [V3K] — lower, 5.38
- LPCETLGPASRMDPESERALQAPH [V3C] — lower, 4.61
- LPLETLGPASRMDPESERALQAPH [V3L] — lower, 4.63
- LPVYTLGPASRMDPESERALQAPH [E4Y] — lower, 4.22
- LPVHTLGPASRMDPESERALQAPH [E4H] — lower, 4.79
- LPVLTLGPASRMDPESERALQAPH [E4L] — lower, 3.49
- LPVSTLGPASRMDPESERALQAPH [E4S] — lower, 4.94
- LPVATLGPASRMDPESERALQAPH [E4A] — lower, 5.07
- LPVFTLGPASRMDPESERALQAPH [E4F] — lower, 3.94
- LPVWTLGPASRMDPESERALQAPH [E4W] — lower, 3.71
- LPVRTLGPASRMDPESERALQAPH [E4R] — lower, 5.09
- LPVPTLGPASRMDPESERALQAPH [E4P] — lower, 5.25
- LPVDTLGPASRMDPESERALQAPH [E4D] — higher, 5.71
- LPVVTLGPASRMDPESERALQAPH [E4V] — lower, 4.62
- LPVCTLGPASRMDPESERALQAPH [E4C] — lower, 4.99
- LPVTTLGPASRMDPESERALQAPH [E4T] — lower, 5.18
- LPVKTLGPASRMDPESERALQAPH [E4K] — lower, 4.99
- LPVITLGPASRMDPESERALQAPH [E4I] — lower, 4.98
- LPVNTLGPASRMDPESERALQAPH [E4N] — lower, 4.53
- LPVMTLGPASRMDPESERALQAPH [E4M] — lower, 4.74
- LPVQTLGPASRMDPESERALQAPH [E4Q] — lower, 4.46
- LPVGTLGPASRMDPESERALQAPH [E4G] — lower, 5.03
- LNVETLGPASRMDPESERALQAPH [P2N] — lower, 4.6
- LVVETLGPASRMDPESERALQAPH [P2V] — lower, 3.33
- LWVETLGPASRMDPESERALQAPH [P2W] — lower, 1.53
- LEVETLGPASRMDPESERALQAPH [P2E] — lower, 3.99
- LFVETLGPASRMDPESERALQAPH [P2F] — lower, 3.42
- LRVETLGPASRMDPESERALQAPH [P2R] — lower, 4.05
- LKVETLGPASRMDPESERALQAPH [P2K] — lower, 3.95
- LDVETLGPASRMDPESERALQAPH [P2D] — lower, 5
- LSVETLGPASRMDPESERALQAPH [P2S] — lower, 4.4
- LMVETLGPASRMDPESERALQAPH [P2M] — lower, 3.04
- LIVETLGPASRMDPESERALQAPH [P2I] — lower, 3.21
- LTVETLGPASRMDPESERALQAPH [P2T] — lower, 4.36
- LQVETLGPASRMDPESERALQAPH [P2Q] — lower, 4.47
- LGVETLGPASRMDPESERALQAPH [P2G] — lower, 4.98
- LAVETLGPASRMDPESERALQAPH [P2A] — lower, 4.24
- LYVETLGPASRMDPESERALQAPH [P2Y] — lower, 3.13
- LLVETLGPASRMDPESERALQAPH [P2L] — lower, 3.37
- LHVETLGPASRMDPESERALQAPH [P2H] — lower, 4.71
- LCVETLGPASRMDPESERALQAPH [P2C] — lower, 4.42
